Reference: paper PMC5374059 (Journal of molecular biology, 2016)
Ends that are not written are not given here. Me3 = trimethyl-lysine; Me2 = dimethyl

T1: Set3 PHD finger (aa 116-184), crystallised (yeast, UniProt P36124 116-184)
T1 sequence (looked up): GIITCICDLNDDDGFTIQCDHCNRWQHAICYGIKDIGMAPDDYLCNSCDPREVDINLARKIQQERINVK

T2: M132T mutant of MLL5 PHD (human, UniProt Q8IZD2 117-181, M132T)
T2 sequence (looked up): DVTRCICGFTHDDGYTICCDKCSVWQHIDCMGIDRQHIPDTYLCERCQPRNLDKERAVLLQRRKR


What was measured:
[1] = target: Set3 PHD finger (wild type, as used in fluorescence and NMR titrations) (yeast) (UniProt P36124); assay: other fluorescence titration
[2] = target: T131M mutant of Set3 PHD (yeast) (UniProt P36124); assay: other fluorescence titration
[3] = target: Set3 PHD finger (wild type, as used in fluorescence and NMR titrations) (yeast) (UniProt P36124); assay: NMR titration
[4] = target: T1, Set3 PHD finger (aa 116-184), …; assay: crystal structure
M132T mutant of MLL5 PHD = target: T2, M132T mutant of MLL5 PHD; assay: NMR titration

| Molecule | Kd [1] | Kd [2] | Kd [3] | binding result [4] | further results |
| --- | --- | --- | --- | --- | --- |
| histone H3K4me3 peptide (residues 1-12 of histone H3) (from UniProt P61830 2-13) | 20 µM | 2.5 µM |  |  |  |
| histone H3K4me2 peptide (residues 1-12 of histone H3) (from UniProt P61830 2-13) | 30 µM | 8 µM |  |  |  |
| ARTK(Me3)QTARKSTG (peptide, UniProt P61830 2-13, looked up) [histone H3K4me3 peptide (residues 1-12 of histone H3)] |  |  |  | binds | fold selectivity for H3K4me3 over H3K4me2 (M132T mutant of MLL5 PHD): 1.5 fold |

More lines, main results first:

| Kd [1] | Kd [2] | Kd [3] | binding result [4] | Molecule | further results |
| --- | --- | --- | --- | --- | --- |
|  |  | 1400 µM |  | histone H3K4me0 peptide (unmodified, residues 1-12 of histone H3) (from UniProt P61830 2-13) |  |
|  |  | 790 µM |  | histone H3K4me1 peptide (residues 1-12 of histone H3) (from UniProt P61830 2-13) |  |
|  |  |  | binds | ARTK(Me2)QTARKSTG (peptide, UniProt P61830 2-13, looked up) [histone H3K4me2 peptide (residues 1-12 of histone H3)] |  |
